Patent US20240301052A1 (LANOVA MEDICINES DEVELOPMENT, published 2024)
Read-outs that look alike come from different tables or passages of the source. One block for each molecule: values may come before it.

How the values were obtained:
human SLC34A2 [1] = molecular target: T1, human SLC34A2 (human, UniProt O95436 1-690); assay: FACS, OVCAR3 cells
T1 sequence (looked up): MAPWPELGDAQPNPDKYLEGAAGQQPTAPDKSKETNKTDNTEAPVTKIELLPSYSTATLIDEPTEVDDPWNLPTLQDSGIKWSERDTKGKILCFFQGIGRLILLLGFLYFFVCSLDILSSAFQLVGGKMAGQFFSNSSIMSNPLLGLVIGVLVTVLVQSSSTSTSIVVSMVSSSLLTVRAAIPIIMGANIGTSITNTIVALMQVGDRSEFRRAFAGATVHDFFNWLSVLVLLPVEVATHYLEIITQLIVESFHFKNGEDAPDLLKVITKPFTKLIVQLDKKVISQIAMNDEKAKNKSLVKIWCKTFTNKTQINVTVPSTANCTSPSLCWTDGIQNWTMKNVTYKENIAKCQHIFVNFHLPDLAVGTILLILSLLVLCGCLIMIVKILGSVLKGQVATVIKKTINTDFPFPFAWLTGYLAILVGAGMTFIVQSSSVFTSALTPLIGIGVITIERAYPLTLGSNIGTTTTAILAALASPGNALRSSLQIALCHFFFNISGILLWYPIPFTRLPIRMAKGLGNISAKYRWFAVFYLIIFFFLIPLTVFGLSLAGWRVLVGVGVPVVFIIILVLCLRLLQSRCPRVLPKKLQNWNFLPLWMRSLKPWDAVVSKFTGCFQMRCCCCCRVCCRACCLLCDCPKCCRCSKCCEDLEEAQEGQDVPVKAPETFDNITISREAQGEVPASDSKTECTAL

human SLC34A2 [2] = molecular target: T1, human SLC34A2; assay: FACS, OVCAR3 cells
human SLC34A2 [3] = molecular target: T1, human SLC34A2; assay: FACS, OVCAR3 cells; remark: listed apart in the source
Procedure: (§1) In another testing, cell based binding of hu Abs on human SLC34A2 expressing cells were assessed using flow cytometry. Briefly, the HEK293/H_SLC34A2, OVCAR3 and RMG-1 cells were incubated with hu Abs. After incubation at 4° C. for 60 minutes, the cells were washed with FACS buffer twice, then stained with fluorescent conjugated secondary antibody at 4° C. for 30 minutes. After that the cells were washed twice and analyzed by flow cytometry.

human SLC34A2 [4] = molecular target: T1, human SLC34A2; assay: cell-based or functional assay
Rhesus SLC34A2 [5] = molecular target: T2, Rhesus SLC34A2 (Rhesus, UniProt F7HDA3 1-690); assay: FACS, HEK293/Rhesus SLC34A2 cells
T2 construct: whole, on cells
T2 sequence: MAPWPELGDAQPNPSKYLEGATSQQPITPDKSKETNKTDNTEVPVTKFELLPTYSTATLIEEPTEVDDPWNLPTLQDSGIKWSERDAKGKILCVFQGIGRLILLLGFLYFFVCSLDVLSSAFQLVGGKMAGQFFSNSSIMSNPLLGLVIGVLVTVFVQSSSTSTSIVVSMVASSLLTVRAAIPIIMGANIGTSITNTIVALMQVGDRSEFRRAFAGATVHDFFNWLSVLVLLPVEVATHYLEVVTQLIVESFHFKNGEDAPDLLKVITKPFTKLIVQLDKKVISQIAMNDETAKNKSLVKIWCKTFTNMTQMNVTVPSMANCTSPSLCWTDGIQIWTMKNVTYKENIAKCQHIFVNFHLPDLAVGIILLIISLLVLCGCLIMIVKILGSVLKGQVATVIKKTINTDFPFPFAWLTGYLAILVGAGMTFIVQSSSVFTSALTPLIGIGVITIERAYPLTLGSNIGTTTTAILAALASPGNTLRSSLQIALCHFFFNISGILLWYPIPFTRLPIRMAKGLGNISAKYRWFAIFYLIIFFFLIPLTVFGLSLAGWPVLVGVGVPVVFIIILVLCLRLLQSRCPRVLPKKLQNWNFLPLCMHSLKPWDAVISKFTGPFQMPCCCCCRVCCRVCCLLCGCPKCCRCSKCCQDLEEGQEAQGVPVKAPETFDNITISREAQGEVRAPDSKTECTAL

human SLC34A2 [6] = molecular target: T1, human SLC34A2; assay: FACS, RMG-1 cells
Procedure: as §1

human SLC34A2 [7] = molecular target: T1, human SLC34A2; assay: FACS, HEK293/human SLC34A2 cells
Procedure: as §1

human SLC34A2 [8] = molecular target: T1, human SLC34A2; assay: FACS, HEK293/human SLC34A2 cells; remark: listed apart in the source
Procedure: The PTM-derisked VH chains were first tested for their impact on target binding. Cell based binding of PTM Abs on human SLC34A2 expressing cells were assessed using flow cytometry. Briefly, the HEK293/H_SLC34A2 cells were incubated with PTM Abs (from 200 nM, 4 folds dilution, 8 points). After incubation at 4° C. for 60 minutes, the cells were washed with FACS buffer twice, then stained with fluorescent conjugated secondary antibody at 4° C. for 30 minutes. After that the cells were washed twice and analyzed by flow cytometry.

human SLC34A2 [9] = molecular target: T1, human SLC34A2; assay: FACS, OVCAR3 cells; remark: listed apart in the source
Procedure: The binding of these humanized antibodies to OVCAR3 cells was evaluated as described above, and the results are shown in FIG. 12A-D and Tables 16A-D.

Rhesus SLC34A2 [10] = molecular target: T2, Rhesus SLC34A2; assay: FACS, HEK293/Rhesus SLC34A2 cells; remark: listed apart in the source
Rhesus SLC34A2 [11] = molecular target: T2, Rhesus SLC34A2; assay: FACS, HEK293/Rhesus SLC34A2 cells; remark: listed apart in the source
human SLC34A2 [12] = molecular target: T1, human SLC34A2; assay: FACS, RMG-1 cells; remark: listed apart in the source
Procedure, shortened: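 Flow-cytometric binding of chimeric antibodies (8-point, 4-fold dilutions from 200 nM) to RMG-1 cells, 60 min at 4° C, followed by fluorescent secondary antibody for 30 min at 4° C.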

human SLC34A2 [13] = molecular target: T1, human SLC34A2; assay: cell-based or functional assay; remark: listed apart in the source
human SLC34A2 [14] = molecular target: T1, human SLC34A2; assay: FACS, OVCAR3 cells; remark: listed apart in the source
Procedure, shortened: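 Chimeric hIgG1 antibodies titrated from 200 nM (4-fold, 8 points) on OVCAR3 cells or HEK293 cells expressing human SLC34A2, 60 min at 4° C. Bound antibody detected with fluorescent secondary antibody (30 min, 4° C) and measured by flow cytometry.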

human SLC34A2 [15] = molecular target: T1, human SLC34A2; assay: cell-based or functional assay; remark: listed apart in the source
human SLC34A2 [16] = molecular target: T1, human SLC34A2; assay: FACS, HEK293/human SLC34A2 cells; remark: listed apart in the source
Procedure: Briefly, OVCAR3 cells or HEK293 cells expressing human SLC34A2 were incubated with chimeric antibodies (from 200 nM, 4 folds dilution, 8 points). After incubation at 4° C. for 60 minutes, the cells were washed with FACS buffer twice, then stained with fluorescent conjugated secondary antibody at 4° C. for 30 minutes. After that the cells were washed twice and analyzed by flow cytometry.

EC50 (human SLC34A2 [1]): 2900 nM
Top (MFI) (human SLC34A2 [1]): 1570 MFI
Molecule: hIgG1 Isotype (antibody)

EC50 (human SLC34A2 [2]): 1.5 nM
Top (MFI) (human SLC34A2 [2]): 70400 MFI
EC50 (human SLC34A2 [3]): 0.37 nM
ADCC reporter EC50 (human SLC34A2 [4]): 2.52 nM
ADCC reporter Top (MFI) (human SLC34A2 [4]): 126000 MFI
EC50 (Rhesus SLC34A2 [5]): 2 nM
Top (MFI) (Rhesus SLC34A2 [5]): 47400 MFI
EC50 (human SLC34A2 [6]): 1.09 nM
Top (human SLC34A2 [6]): 11100 MFI
EC50 (human SLC34A2 [7]): 1.18 nM
Top (human SLC34A2 [7]): 35700 MFI
EC50 (human SLC34A2 [8]): 0.89 nM
Top (MFI) (human SLC34A2 [8]): 31700 MFI
EC50 (human SLC34A2 [9]): 0.68 nM
Top (MFI) (human SLC34A2 [9]): 28700 MFI
EC50 (Rhesus SLC34A2 [10]): 0.8 nM
Top (MFI) (Rhesus SLC34A2 [10]): 17000 MFI
B1: 30H9B8F9 VH_P1/VL hIgG1 (antibody, V domains shown)
VH: QVQLQQPGAELVKPGASVKMSCKTSGYTFTTNNMHWVKQTPGQGLEWIGAIYPGSGATAYNQKFKGKATLTADKSSSTAYMQLSSLTSEASAVYYCARGMYGHGAMDYWGQGTSVIVSS
VL: DIVMTQSHKFMSRSVGDRVRITCKASQDVGTAVAWYQQKPGQSPKLLIYWATTRHSGVPDRFTGSGSGTDFIFTISNVQSEDLADYFCQQYSSNPLTFGAGTKLELK
notes: PTM-derisked chimeric, hIgG1; that P1 is the N=>S version follows from the humanized .p1 chains; also called 30H9B8F9.p1 hIgG1

Top (MFI) (Rhesus SLC34A2 [11]): 5.4e+06 MFI
EC50 (human SLC34A2 [12]): 8.36 nM
Top (MFI) (human SLC34A2 [12]): 10200 MFI
ADCC reporter EC50 (human SLC34A2 [13]): 3.6 nM
ADCC reporter Top (MFI) (human SLC34A2 [13]): 247000 MFI
EC50 (human SLC34A2 [14]): 7.86 nM
Top (MFI) (human SLC34A2 [14]): 28900 MFI
EC50 (human SLC34A2 [16]): 2.11 nM
Top (MFI) (human SLC34A2 [16]): 47900 MFI
B2: xi71F7D4 hIgG1 (antibody, V domains shown)
VH: DVKLVESGGDLVKLGGSLKLSCAASGFTFSNYYMSWVRQTPEKRLELVAVINSNGGTTYYPDNMKGRFTISRDNAKNTLYLQTSSLKSEDTALYYCGRHEHYYGTNIAWFAYWGQGTLVTVSA
VL: DIVMTQSHKFMSTSVGDRVSITCKASQDVTTAVAWYQQKPGQSPKLLIYWASTRHTGVPDRFTGSGSGTDHTLTISSVQAEDLALYYCQQHYSTPVTFGGGTKLEIK
notes: chimeric, hIgG1
cytotoxicity EC50 (human SLC34A2 [15]): 0.83 nM
cytotoxicity Inhibition % (human SLC34A2 [15]): 99.4%
